This is an account of results in FireProtDB (doi:10.1038/75151).

For this data set the following is noted: Bacillus caldolyticus, pH 7, Thermal, CD, Sodium cacodylate-HCl 0.1 M, reversible: yes, whole UniProt chain shown.

B1: Cold shock protein CspB wild type, P41016 (protein)
chain: MQRGKVKWFNNEKGYGFIEVEGGSDVFVHFTAIQGEGFKTLEEGQEVSFEIVQGNRGPQAANVVKL
As for B1, the Tm was determined as 76.9 °C and the “unfolding enthalpy (van 't Hoff)” value worked out at 58.6 kcal/mol. The unfolding free energy (70 °C, NaCl 2 M) turned out to be 2.2 kcal/mol.

By Tm is commonly meant the temperature at the midpoint of the melting transition.
